± gives the uncertainty stated by the source.
B1: GAS2-like protein 1, residues 209 to 276; numbered along this chain, Q99501 (parent)
chain: DELVREILGRCTCPDQFPMIKVSEGKYRVGDSSLLIFVRVLRSHVMVRVGGGWDTLEHYLDKHDPCRC

Variants of: B1
Test: abundance fitness (aPCA) (normalised: wild type 0, dead -1); higher = more abundant; growth selection in yeast, the domain comes from the species named
Conditions: Homo sapiens

V40Y and V40S are within error of each other in abundance fitness: -0.26 ± 0.31 for the first, -0.319 ± 0.091 for the second.

V40W and V40G are within error of each other in abundance fitness: -0.661 ± 0.31 for the first, -0.349 ± 0.084 for the second.

Compared with V40T, V40P is lower in abundance fitness: -0.137 ± 0.095 for the first, -0.44 ± 0.11 for the second.

V40C and V40E are within error of each other in abundance fitness: -0.097 ± 0.074 for the first, -0.196 ± 0.4 for the second.

First: V40R
Second: V40M
The abundance fitness of the first is higher: -0.025 ± 0.049 for the first, -0.259 ± 0.1 for the second.

Going from V40K to V40H, the abundance fitness falls from 0.129 ± 0.14 to -0.308 ± 0.14.

First: V40N
Second: V40Q
The abundance fitness of the first is higher: 0.029 ± 0.1 for the first, -0.28 ± 0.19 for the second.

V40F and I36A are within error of each other in abundance fitness: -0.369 ± 0.095 for the first, -0.209 ± 0.076 for the second.

I36R and I36G are within error of each other in abundance fitness: -0.542 ± 0.1 for the first, -0.683 ± 0.22 for the second.

Going from I36M to I36K, the abundance fitness falls from 0.058 ± 0.11 to -0.398 ± 0.18.

Compared with I36L, I36Y is lower in abundance fitness: 0.148 ± 0.056 for the first, -0.444 ± 0.15 for the second.

I36P and I36W are within error of each other in abundance fitness: -0.592 ± 0.25 for the first, -0.705 ± 0.26 for the second.

Going from I36Q to I36F, the abundance fitness rises from -0.992 ± 0.34 to -0.346 ± 0.11.

I36C and I36V are within error of each other in abundance fitness: 0.169 ± 0.097 for the first, -0.017 ± 0.099 for the second.

I36S and I36D are within error of each other in abundance fitness: -0.673 ± 0.13 for the first, -0.863 ± 0.43 for the second.

I36T and E57S are within error of each other in abundance fitness: -0.314 ± 0.11 for the first, -0.388 ± 0.052 for the second.

Going from E57D to E57P, the abundance fitness falls from -0.21 ± 0.2 to -0.922 ± 0.16.

E57V and E57G are within error of each other in abundance fitness: -0.765 ± 0.15 for the first, -0.627 ± 0.11 for the second.

E57R and E57I are within error of each other in abundance fitness: -0.899 ± 0.14 for the first, -0.669 ± 0.11 for the second.

Compared with E57T, E57L is lower in abundance fitness: -0.365 ± 0.077 for the first, -0.873 ± 0.12 for the second.

Compared with E57C, E57Q is higher in abundance fitness: -0.993 ± 0.18 for the first, -0.235 ± 0.16 for the second.

E57K and E57H are within error of each other in abundance fitness: -0.598 ± 0.33 for the first, -0.669 ± 0.086 for the second.

Compared with E57F, R42M is higher in abundance fitness: -0.958 ± 0.14 for the first, -0.1 ± 0.088 for the second.

Compared with R42S, R42I is lower in abundance fitness: -0.143 ± 0.072 for the first, -0.913 ± 0.24 for the second.

R42C and R42Y are within error of each other in abundance fitness: -0.187 ± 0.069 for the first, -0.155 ± 0.069 for the second.

R42F and R42P are within error of each other in abundance fitness: -0.246 ± 0.074 for the first, -0.424 ± 0.2 for the second.

First: R42D
Second: R42V
The abundance fitness of the first is higher: 0.134 ± 0.075 for the first, -0.639 ± 0.12 for the second.

Going from R42E to R42H, the abundance fitness rises from -0.136 ± 0.11 to 0.074 ± 0.067.

Going from R42G to R42W, the abundance fitness falls from 0.121 ± 0.05 to -0.289 ± 0.08.

R42Q and R42A are within error of each other in abundance fitness: -0.005 ± 0.057 for the first, -0.066 ± 0.068 for the second.

Going from R42T to R42N, the abundance fitness rises from -0.334 ± 0.078 to 0.119 ± 0.069.

First: R42L
Second: F37R
The abundance fitness of the first is lower: -0.541 ± 0.066 for the first, 0.189 ± 0.031 for the second.

F37A and F37G are within error of each other in abundance fitness: 0.106 ± 0.042 for the first, 0.064 ± 0.038 for the second.

Compared with F37V, F37E is higher in abundance fitness: 0.054 ± 0.04 for the first, 0.383 ± 0.049 for the second.

F37D and F37Q are within error of each other in abundance fitness: 0.37 ± 0.089 for the first, 0.248 ± 0.061 for the second.

Compared with F37S, F37K is lower in abundance fitness: 0.306 ± 0.038 for the first, 0.134 ± 0.051 for the second.

F37W and F37I are within error of each other in abundance fitness: 0.051 ± 0.055 for the first, -0.007 ± 0.068 for the second.

Compared with F37L, F37N is higher in abundance fitness: 0.141 ± 0.037 for the first, 0.31 ± 0.078 for the second.

Going from F37P to F37M, the abundance fitness falls from 0.256 ± 0.048 to 0.066 ± 0.078.

Compared with F37Y, F37C is higher in abundance fitness: -0.07 ± 0.12 for the first, 0.154 ± 0.081 for the second.

Going from R48F to R48G, the abundance fitness rises from -0.404 ± 0.078 to -0.236 ± 0.041.

Compared with R48V, R48Y is higher in abundance fitness: -0.784 ± 0.057 for the first, -0.166 ± 0.057 for the second.

R48C and R48E are within error of each other in abundance fitness: -0.224 ± 0.065 for the first, -0.191 ± 0.12 for the second.

Compared with R48P, R48S is higher in abundance fitness: -0.539 ± 0.076 for the first, 0.039 ± 0.037 for the second.

R48M and R48H are within error of each other in abundance fitness: -0.225 ± 0.07 for the first, -0.102 ± 0.17 for the second.

Going from R48I to R48N, the abundance fitness rises from -0.542 ± 0.11 to 0.087 ± 0.061.

First: R48Q
Second: R48A
The abundance fitness of the first is higher: -0.133 ± 0.076 for the first, -0.446 ± 0.063 for the second.

Compared with R48W, R48K is higher in abundance fitness: -0.366 ± 0.084 for the first, 0.142 ± 0.063 for the second.

R48L and R48T are within error of each other in abundance fitness: -0.495 ± 0.048 for the first, -0.628 ± 0.09 for the second.

Compared with R48D, M46S is lower in abundance fitness: -0.256 ± 0.055 for the first, -0.642 ± 0.087 for the second.

M46I and M46T are within error of each other in abundance fitness: -0.186 ± 0.14 for the first, -0.299 ± 0.15 for the second.

M46D and M46R are within error of each other in abundance fitness: -0.931 ± 0.37 for the first, -0.541 ± 0.093 for the second.

M46A and M46P are within error of each other in abundance fitness: -0.596 ± 0.089 for the first, -0.476 ± 0.11 for the second.

Compared with M46Y, M46H is lower in abundance fitness: 0.109 ± 0.11 for the first, -0.332 ± 0.095 for the second.

Going from M46L to M46V, the abundance fitness falls from -0.056 ± 0.055 to -0.322 ± 0.091.

M46G and M46E are within error of each other in abundance fitness: -0.666 ± 0.1 for the first, -0.455 ± 0.14 for the second.

Compared with M46C, M46K is lower in abundance fitness: -0.24 ± 0.15 for the first, -0.601 ± 0.13 for the second.

Compared with M46Q, G52T is higher in abundance fitness: -0.093 ± 0.093 for the first, 0.109 ± 0.038 for the second.

G52K and G52S are within error of each other in abundance fitness: 0.136 ± 0.062 for the first, 0.063 ± 0.034 for the second.

G52R and G52A are within error of each other in abundance fitness: 0.021 ± 0.031 for the first, 0.065 ± 0.034 for the second.

G52V and G52H are within error of each other in abundance fitness: 0.089 ± 0.033 for the first, 0.077 ± 0.049 for the second.

Going from G52D to G52P, the abundance fitness falls from 0.013 ± 0.044 to -0.669 ± 0.093.

G52Q and G52Y are within error of each other in abundance fitness: 0.166 ± 0.039 for the first, 0.08 ± 0.057 for the second.

G52N and G52C are within error of each other in abundance fitness: -0.032 ± 0.068 for the first, -0.071 ± 0.066 for the second.

G52L and G52I are within error of each other in abundance fitness: -0.004 ± 0.031 for the first, -0.038 ± 0.061 for the second.

Going from G52F to H58C, the abundance fitness falls from -0.068 ± 0.05 to -0.3 ± 0.068.

First: H58E
Second: H58A
The abundance fitness of the first is lower: -0.102 ± 0.072 for the first, 0.043 ± 0.042 for the second.

Going from V47C to V47S, the abundance fitness falls from -0.175 ± 0.051 to -1.08 ± 0.12.

V47G and V47Q are within error of each other in abundance fitness: -0.851 ± 0.069 for the first, -1.08 ± 0.46 for the second.

V47N and V47F are within error of each other in abundance fitness: -1.01 ± 0.18 for the first, -0.921 ± 0.2 for the second.

Going from V47T to V47R, the abundance fitness falls from -0.783 ± 0.087 to -0.979 ± 0.1.

First: V47A
Second: V47W
The abundance fitness of the first is higher: -0.429 ± 0.051 for the first, -0.761 ± 0.13 for the second.

Compared with V47E, V47Y is higher in abundance fitness: -0.99 ± 0.2 for the first, -0.386 ± 0.12 for the second.

Going from V47K to V47D, the abundance fitness falls from -0.694 ± 0.13 to -0.997 ± 0.16.

V47L and V47M are within error of each other in abundance fitness: -0.595 ± 0.056 for the first, -0.565 ± 0.12 for the second.

First: V47P
Second: S43G
The abundance fitness of the first is lower: -0.888 ± 0.12 for the first, 0.253 ± 0.054 for the second.

First: S43F
Second: S43E
The abundance fitness of the first is lower: -0.175 ± 0.14 for the first, 0.164 ± 0.12 for the second.

First: S43P
Second: S43A
The abundance fitness of the first is higher: 0.01 ± 0.059 for the first, -0.158 ± 0.076 for the second.

S43Y and S43L are within error of each other in abundance fitness: -0.405 ± 0.43 for the first, -0.648 ± 0.12 for the second.

First: S43W
Second: S43T
The abundance fitness of the first is lower: -0.462 ± 0.32 for the first, -0.011 ± 0.13 for the second.

First: S43N
Second: S43M
The abundance fitness of the first is higher: 0.124 ± 0.064 for the first, -0.362 ± 0.12 for the second.

S43V and H44P are within error of each other in abundance fitness: -0.58 ± 0.11 for the first, -0.731 ± 0.11 for the second.

H44E and H44R are within error of each other in abundance fitness: 0.222 ± 0.066 for the first, 0.142 ± 0.055 for the second.

In the case of H44N, the abundance fitness is reported as -0.376 ± 0.25.

— the Human Domainome abundance scans (Beltran et al. 2025)
